Data: US20250257149A1

Columns and labels:
[1] = molecular target: MUC1 tandem repeat peptide …-T(X)-… with GalNAcalpha (Tn) at T (human); assay: antigen ELISA on Tn-PDTR MUC1 peptide, purified antibody [panel Binding to Tn-MUC1]
[2] = molecular target: MUC1 tandem repeat peptide …-T(X)-… with Galβ1-3GalNAcalpha (TF) at T (human); assay: antigen ELISA on TF-PDTR MUC1 peptide, purified antibody [panel Binding to TF-MUC1]
Chain of MUC1 tandem repeat peptide …-T(X)-… with Galβ1-3GalNAcalpha (TF) at T (human) (peptide, as listed by the source): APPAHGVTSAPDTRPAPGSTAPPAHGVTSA

Chain of MUC1 tandem repeat peptide …-T(X)-… with GalNAcalpha (Tn) at T (human) (peptide, as listed by the source): as above

PankoMab N54W (antibody) was tested, and the EC50 (read off the curve) [1] was 10 ng/mL and the EC50 (read off the curve) [2] was 8 ng/mL.
